Reference: patent US20160153985A1

How the values were obtained:
[1] = target: pure human iC3b (Complement Technology, A115) (human) (UniProt P01024); test: sandwich ELISA, capture A209 (Example 5), goat anti-C3-HRP; TABLE 6 well G9, 10% vitreous
[2] = target: pure human iC3b (Complement Technology, A115) (human) (UniProt P01024); test: sandwich ELISA, capture A209 (Example 5), goat anti-C3-HRP; TABLE 6 well D5, 30% vitreous
[3] = target: pure human iC3b (Complement Technology, A115) (human) (UniProt P01024); test: sandwich ELISA, capture A209 (Example 5), goat anti-C3-HRP; TABLE 7, iC3b in 10% vitreous
[4] = target: pure human iC3b (Complement Technology, A115) (human) (UniProt P01024); test: sandwich ELISA, capture A209 (Example 5), goat anti-C3-HRP; TABLE 7, iC3b in 20% vitreous
[5] = target: pure human iC3b (Complement Technology, A115) (human) (UniProt P01024); test: sandwich ELISA, capture A209 (Example 5), goat anti-C3-HRP; TABLE 6 well C3, 30% vitreous
[6] = target: pure human iC3b (Complement Technology, A115) (human) (UniProt P01024); test: sandwich ELISA, capture A209 (Example 5), goat anti-C3-HRP; TABLE 6 well G4, 10% vitreous
[7] = target: pure human iC3b (Complement Technology, A115) (human) (UniProt P01024); test: sandwich ELISA, capture A209 (Example 5), goat anti-C3-HRP; TABLE 6 well C7, 30% vitreous
[8] = target: pure human iC3b (Complement Technology, A115) (human) (UniProt P01024); test: sandwich ELISA, capture A209 (Example 5), goat anti-C3-HRP; TABLE 6 well G6, 10% vitreous
[9] = target: pure human iC3b (Complement Technology, A115) (human) (UniProt P01024); test: sandwich ELISA, capture A209 (Example 5), goat anti-C3-HRP; TABLE 6 well F6, 20% vitreous
[10] = target: pure human iC3b (Complement Technology, A115) (human) (UniProt P01024); test: sandwich ELISA, capture A209 (Example 5), goat anti-C3-HRP; TABLE 6 well C5, 30% vitreous
[11] = target: pure human iC3b (Complement Technology, A115) (human) (UniProt P01024); test: sandwich ELISA, capture A209 (Example 5), goat anti-C3-HRP; TABLE 6 well E2, 20% vitreous
[12] = target: pure human iC3b (Complement Technology, A115) (human) (UniProt P01024); test: sandwich ELISA, capture A209 (Example 5), goat anti-C3-HRP; TABLE 6 well C2, 30% vitreous
[13] = target: pure human iC3b (Complement Technology, A115) (human) (UniProt P01024); test: sandwich ELISA, capture A209 (Example 5), goat anti-C3-HRP; TABLE 6 well C8, 30% vitreous
[14] = target: pure human iC3b (Complement Technology, A115) (human) (UniProt P01024); test: sandwich ELISA, capture A209 (Example 5), goat anti-C3-HRP; TABLE 6 well A7, blocker
[15] = target: pure human iC3b (Complement Technology, A115) (human) (UniProt P01024); test: sandwich ELISA, capture A209 (Example 5), goat anti-C3-HRP; TABLE 6 well D6, 30% vitreous
[16] = target: pure human iC3b (Complement Technology, A115) (human) (UniProt P01024); test: sandwich ELISA, capture A209 (Example 5), goat anti-C3-HRP; TABLE 6 well D4, 30% vitreous
[17] = target: pure human iC3b (Complement Technology, A115) (human) (UniProt P01024); test: sandwich ELISA, capture A209 (Example 5), goat anti-C3-HRP; TABLE 6 well H6, 10% vitreous
[18] = target: pure human iC3b (Complement Technology, A115) (human) (UniProt P01024); test: sandwich ELISA, capture A209 (Example 5), goat anti-C3-HRP; TABLE 6 well B6, blocker
[19] = target: pure human iC3b (Complement Technology, A115) (human) (UniProt P01024); test: sandwich ELISA, capture A209 (Example 5), goat anti-C3-HRP; TABLE 6 well H4, 10% vitreous
[20] = target: pure human iC3b (Complement Technology, A115) (human) (UniProt P01024); test: sandwich ELISA, capture A209 (Example 5), goat anti-C3-HRP; TABLE 6 well F9, 20% vitreous
[21] = target: pure human iC3b (Complement Technology, A115) (human) (UniProt P01024); test: sandwich ELISA, capture A209 (Example 5), goat anti-C3-HRP; TABLE 6 well F2, 20% vitreous
[22] = target: pure human iC3b (Complement Technology, A115) (human) (UniProt P01024); test: sandwich ELISA, capture A209 (Example 5), goat anti-C3-HRP; TABLE 6 well H5, 10% vitreous
[23] = target: pure human iC3b (Complement Technology, A115) (human) (UniProt P01024); test: sandwich ELISA, capture A209 (Example 5), goat anti-C3-HRP; TABLE 6 well B5, blocker

UniProt P01024, sequence (P01024 23-667 limits assumed, chain 1 of 3): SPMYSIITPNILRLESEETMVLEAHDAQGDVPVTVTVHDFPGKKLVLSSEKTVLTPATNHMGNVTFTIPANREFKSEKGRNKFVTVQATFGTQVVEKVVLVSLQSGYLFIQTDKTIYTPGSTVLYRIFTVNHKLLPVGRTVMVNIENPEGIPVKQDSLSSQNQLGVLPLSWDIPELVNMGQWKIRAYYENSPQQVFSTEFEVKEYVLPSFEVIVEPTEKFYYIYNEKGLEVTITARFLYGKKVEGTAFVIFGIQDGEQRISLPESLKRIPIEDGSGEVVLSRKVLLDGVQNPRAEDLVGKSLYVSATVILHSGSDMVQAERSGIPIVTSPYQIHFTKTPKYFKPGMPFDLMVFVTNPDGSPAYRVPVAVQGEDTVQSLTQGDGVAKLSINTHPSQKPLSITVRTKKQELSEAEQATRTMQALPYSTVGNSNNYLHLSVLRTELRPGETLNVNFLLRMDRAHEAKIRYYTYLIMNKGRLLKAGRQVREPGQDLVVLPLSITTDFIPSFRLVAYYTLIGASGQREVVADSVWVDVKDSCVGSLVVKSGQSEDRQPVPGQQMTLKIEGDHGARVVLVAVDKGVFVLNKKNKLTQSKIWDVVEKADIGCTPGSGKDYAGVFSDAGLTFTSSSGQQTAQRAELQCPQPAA
UniProt P01024, sequence (P01024 749-1303 limits assumed, chain 2 of 3): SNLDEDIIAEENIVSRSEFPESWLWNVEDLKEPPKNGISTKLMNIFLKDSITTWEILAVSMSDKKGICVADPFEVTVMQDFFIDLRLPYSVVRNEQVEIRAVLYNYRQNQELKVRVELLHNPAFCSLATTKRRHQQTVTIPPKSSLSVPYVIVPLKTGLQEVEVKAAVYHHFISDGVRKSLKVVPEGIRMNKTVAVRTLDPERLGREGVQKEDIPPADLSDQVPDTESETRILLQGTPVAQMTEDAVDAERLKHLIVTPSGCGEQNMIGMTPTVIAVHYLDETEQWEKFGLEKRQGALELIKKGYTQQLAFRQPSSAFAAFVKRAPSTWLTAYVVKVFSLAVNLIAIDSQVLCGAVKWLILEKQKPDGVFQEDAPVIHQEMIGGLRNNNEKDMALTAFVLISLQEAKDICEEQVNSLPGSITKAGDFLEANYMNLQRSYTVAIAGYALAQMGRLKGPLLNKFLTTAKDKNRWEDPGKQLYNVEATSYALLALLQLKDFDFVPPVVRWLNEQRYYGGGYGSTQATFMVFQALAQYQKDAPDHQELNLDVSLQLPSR
UniProt P01024, sequence (P01024 1321-1663 limits assumed, chain 3 of 3): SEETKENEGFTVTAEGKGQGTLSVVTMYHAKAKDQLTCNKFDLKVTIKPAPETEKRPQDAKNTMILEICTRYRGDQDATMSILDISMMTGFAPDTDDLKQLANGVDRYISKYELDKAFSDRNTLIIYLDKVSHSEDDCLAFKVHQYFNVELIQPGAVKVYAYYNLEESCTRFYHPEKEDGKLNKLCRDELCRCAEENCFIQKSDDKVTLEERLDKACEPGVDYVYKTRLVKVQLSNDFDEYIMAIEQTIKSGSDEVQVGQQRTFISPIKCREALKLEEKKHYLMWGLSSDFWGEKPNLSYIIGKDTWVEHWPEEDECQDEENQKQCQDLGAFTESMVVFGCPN

raw A450 at iC3b 0.0078 ug/ml [1]: 0.229 OD
raw A450 at iC3b 0.125 ug/ml [2]: 0.391 OD
A450 minus matrix average at iC3b 0.0078 ug/ml [3]: -0.008 OD
A450 minus matrix average at iC3b 0.016 ug/ml [3]: 0.006 OD
A450 minus matrix average at iC3b 0.031 ug/ml [3]: 0.014 OD
A450 minus matrix average at iC3b 0.063 ug/ml [3]: 0.017 OD
A450 minus matrix average at iC3b 0.125 ug/ml [3]: 0.062 OD
A450 minus matrix average at iC3b 0.25 ug/ml [3]: 0.056 OD
A450 minus matrix average at iC3b 0.5 ug/ml [3]: 0.125 OD
A450 minus matrix average at iC3b 1 ug/ml [3]: 0.239 OD
A450 minus matrix average at iC3b 0.0078 ug/ml [4]: -0.002 OD
A450 minus matrix average at iC3b 0.016 ug/ml [4]: 0 OD
A450 minus matrix average at iC3b 0.031 ug/ml [4]: 0.012 OD
A450 minus matrix average at iC3b 0.063 ug/ml [4]: 0.03 OD
A450 minus matrix average at iC3b 0.25 ug/ml [4]: 0.099 OD
A450 minus matrix average at iC3b 0.5 ug/ml [4]: 0.122 OD
A450 minus matrix average at iC3b 1 ug/ml [4]: 0.182 OD
raw A450 at iC3b 0.5 ug/ml [5]: 0.406 OD
raw A450 at iC3b 0.25 ug/ml [6]: 0.28 OD
raw A450 at iC3b 0.031 ug/ml [7]: 0.355 OD
raw A450 at iC3b 0.063 ug/ml [8]: 0.254 OD
raw A450 at iC3b 0.063 ug/ml [9]: 0.355 OD
raw A450 at iC3b 0.125 ug/ml [10]: 0.385 OD
raw A450 at iC3b 1 ug/ml [11]: 0.485 OD
raw A450 at iC3b 1 ug/ml [12]: 0.443 OD
raw A450 at iC3b 0.016 ug/ml [13]: 0.336 OD
raw A450 at iC3b 0.031 ug/ml [14]: 0.053 OD
raw A450 at iC3b 0.063 ug/ml [15]: 0.362 OD
raw A450 at iC3b 0.25 ug/ml [16]: 0.433 OD
raw A450 at iC3b 0.063 ug/ml [17]: 0.23 OD
raw A450 at iC3b 0.063 ug/ml [18]: 0.07 OD
raw A450 at iC3b 0.25 ug/ml [19]: 0.283 OD
raw A450 at iC3b 0.0078 ug/ml [20]: 0.38 OD
raw A450 at iC3b 1 ug/ml [21]: 0.527 OD
raw A450 at iC3b 0.125 ug/ml [22]: 0.3 OD
raw A450 at iC3b 0.125 ug/ml [23]: 0.1 OD
Substance: mouse anti-iC3b antibody A209 (Quidel)
